Test results taken from the nanobody polyreactivity screen of Harvey et al. (2022).

Assay: yeast display, Sf9 membrane polyspecificity reagent, FACS + sequencing; frameworks hold sequencing errors
Outline: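 A nanobody's polyreactivity label depends on the gate it was sorted from. Yeast display cells were stained with 10% biotinylated, detergent-solubilized Sf9 membrane reagent for 1 hour at 4 °C, enriched on streptavidin microbeads and sorted by FACS. The low and high (top ~1%) gates were set on anti-HA fluorescence for expression and streptavidin fluorescence for reagent binding.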

QVQLVESGGGLVQAGGSLRLSCAASGLIFGTNAMGWYRQAPGKERELVAAISGSGGRTYYADSVKGRFTISRDNAKNTVYLQMNSLKPEDTAVYYCAADYVYGTRDDYWGQGTQVTVSS
polyreactivity (PSR sort gate): high polyreactivity

QVQLVESGVGLVQAGGSLRLSCAASGLIFRPYTMGWDRQAPGKERELVATITGSGASTNYADSVKGRFTISRDNAKNTLYLQMNSLKPEDTAVYYCKGRSYSRMYYWGQGTQVTVSS
polyreactivity (PSR sort gate): high polyreactivity

QVQHVESRGGLVQAGGSLRLSCAASGSIFSANAMGWYRQAPGKVRELVAAITRGGSTNYADSVKGRFTISRDNAKNTVYLQMNSLKPEDTAVYYCNAEPDPYSSGRVRRDYDYWGQGTQVTVSS
polyreactivity (PSR sort gate): low polyreactivity

QVQLVESAGGLVQAGGSLRITCAASGINFTFYTMGWYRQAPGKERELVAAITWSGGSTNYADSVKGRFTISRDNAKNTVYLQMNSLKPEDTAVYYCAAQGYPQSPPWEDYWGQGTQVTVSS
polyreactivity (PSR sort gate): low polyreactivity

QVQLVESGGGLVQAGGSLRLSCAASGSIIYRNVMGWYRQAPGKERELVAAISSNGGRTYYADSVKGRFTISRDNAKNTVYLQMNSLKPEDTAVYYCAADTYPGTYYWGQGTQVTVSS
polyreactivity (PSR sort gate): high polyreactivity

QVQLVESGGGLVQAGGSLRLSCAASGSTIVNNAMGWYIQAPGKERELVAAIRSSDGRTYYADSVKGRFTISRDNAKNTVYLQMNSLKPEDTAVYYCNRRYRKYSSAKYDYWGQGTQVTVSS
polyreactivity (PSR sort gate): high polyreactivity

QVQLVESGGGIVQAGGSLRLSCAASGSTLGSNSMGWYRQAPGKERELVAAITWSGGTTYYADSVKGRFTISRDNAKNTVYLQMNSLKPEYTAVYYCATGQSVIYRYEYWGQGTQVTVSS
polyreactivity (PSR sort gate): low polyreactivity

QVQLVESGGGLVQAGGSLRLSCAASGSTFGANAMGWYRQAPGKEREFVAAISSGGRTNYADSVKGRFTISRDNAKNTVYLQMNSLKPEDTAVYYCAASFRRWYFYARHEYGYWGQGTQVTVSS
polyreactivity (PSR sort gate): low polyreactivity

QVQLVESGGGLVQAGGSLRLSCAASGSIFYPYAMGWYRQAPGKERELVAAISSSGGSTYYADSVKGRFTISRDTAKNTVYLQMNSLKPEDTAVYYCAARGKKHAYDYWGQGTQVTVSS
polyreactivity (PSR sort gate): low polyreactivity

QVQLVESGGGLVQAGGTLPLSCAATGSILGYYAMGWYRHAPGKERELVAITSGDSTYYADSVKGRFTISRDNAKNTVYLQMNSLKPEDTAVYYCAADVVRGSRYNRYGYWGQGTQVTVSS
polyreactivity (PSR sort gate): high polyreactivity

QVQLVESGGGLVQAGGSLRLSCAACGFTFWKYAMGWYRQAPGKERELVAAITSGGNTYYADSVKGRFTISRDNAKNTVYLQMNSLKPEDTAVYYCATSGPRGWSLHDYWGQGTQVTVSS
polyreactivity (PSR sort gate): high polyreactivity

QVQLVESGGGLVQAGGSLRLSCAASGITLGYYAMGWYRQAPGKERELVAAISYRGGNTYYADSVKGRFTISRDNAKNTVYLQMNSLKPEDTAVYYCNADLGYESGWWSKYDYWGQGNQVTVSS
polyreactivity (PSR sort gate): low polyreactivity

QVQLVESGGGLVQAGGSLRLSCAASGSTFKRYAMGWSRQAPGKERECVAGITWRGGRTYYADSVKGRFKISRDIAKNTVYLQMNSLKPEDTSVYYCAATFYTSSHLAGYYWGQGTQVTVSS
polyreactivity (PSR sort gate): high polyreactivity

QVQLVESGGGLVQAGCSLRLSCAASGSTFPYNSMGWYRQAPGKERELVAAITSSGRTNYADSVKGRFTISRDNAKNTVYLQMNSLKPEDTAVYYCAAARWYAHRVDYWGQGTQVTVSS
polyreactivity (PSR sort gate): low polyreactivity

QVQLVESGGGLVQAGGSLRLSCAASGSTFVGYARGWYRQEPGNETELVAAISGSGTSTYYADSVKGRFTISLDNAKNTVYLQMNSLKPEDTAVYYCKADPIFVYSSYNYWGQGTQVTVSS
polyreactivity (PSR sort gate): low polyreactivity

QVQLVESGGGLVQAGGSLRLSCAASGSTLDFNAMGWYRQAPGKERELVATITYGVGKNYADSVKGRFTISRDNAKNTVYLQMNSLKPEDTAVYYCAANNWDYARYTYWYYSFLAYDYWGQGTQVTVSS
polyreactivity (PSR sort gate): low polyreactivity

QVQLVESGGGLVQAGGSLRLSCAASGSIFAYNAMGWYRQAPGKEREFVAAISQSGGRTYYADSVKGRFTISRDNAKNTVYLQMNSLKPEDTAVYYCATDGIRLTRHRDYDYWGQGTQVTVSS
polyreactivity (PSR sort gate): low polyreactivity

QVQLVESGGGLVQAGGSLRLICAASGSTFWYYAMGWYRTAPGKDRELVAAITYGGGSTYYADSVKGRFTISRDNAKNTVYLQMNSLKPEDTAVYYCAAQSYDYWYDYDYWGQGTQVTVSS
polyreactivity (PSR sort gate): high polyreactivity

QVQLVESGGGLVQAGGSLRLSCAASGLIFYSYAMGWYRQAPGKERELVAAINGGGGSTYYADSVKGRFTISRDNAKNTVYFQMNSLKPEDTAVSYCAAPYYRLTGWSRYDYWGQGTQVTVSS
polyreactivity (PSR sort gate): high polyreactivity

QVQLVESGGGLVQAGGSLRLSCAASGRTFYYYAMGWYRQAPGKERELVARISRGGSTNYADSVKGRFTISRDNAKNTVYLQMNSLKPEDTAVYYCAKTISYTGRFWGYDYWGQGTQVTVSS
polyreactivity (PSR sort gate): high polyreactivity

QVQLVESGGGLVQAGGSLRLSCAASGRTFRGNAMGWYRQAPGKERELVAAITSSGGGTYYADSVKGRFTISRDNAKNTVYLQMYSLKPEDTAVYYCAAEYRDGYRFSYDYWGQGTQVTVSS
polyreactivity (PSR sort gate): low polyreactivity

QVQLVESGGGLVQAGGSLRLTCAASGFTLDVNAMGWYRQAPGKERELVATISWGGASTYYADSVKGRFTISRDNAKNTVYLQMNSLKPEDTAVYYCAAQYYYPDDKGGYDYWGQGTQVTVSS
polyreactivity (PSR sort gate): low polyreactivity

QVQLVESGGGLVQAGGSLRLSCAASGRIFKYNAMGWYRPAPGKERELVAAISGTGGSTYYADSVKGRFTISRDNAKNTVYLQMNSLKPEDTAVYYCNRRYYGHSTWKYDYWGQGTQVTVSS
polyreactivity (PSR sort gate): high polyreactivity

QVQLVESGGGLVQAGGSLRLSCAASGRIFGRNARGWYRQAPGKEREFVAAISGNGGSTYYADSVKGRFTISRDNAKNTVYLQMNSLKPEDTAVYYCATKYFSRMDYWGQGTQVTVSS
polyreactivity (PSR sort gate): high polyreactivity

QVQHVESVVGFVQAGASLRLSCASSVLILAQNTMGWYRQAPGKERELVAAISWRGGNTYYADSVKGRLTISRDNAKNTVYLKMNILKPEDTAVDYCAARRPRRIVDYDYWGQGTQVTVSS
polyreactivity (PSR sort gate): high polyreactivity

QVQLVESGGGLVQAGGSLRLSCAASGRIFGSYAMGWYRQAPGKERELVAGIRSVGSTNYADSVKGRFTISRDNAKNTVYFQINSLKPEDTAVYYCAARLWHLSYAGQGGDYWGHGTQVTVSS
polyreactivity (PSR sort gate): low polyreactivity

QVQLHESGGGLVLAGGSLRLSCSASGNISVYGSMGLYRQAPGKEREFVATIDPGTNTNYADSVKDRFSISRDNAKHTVYLQMNSLKPEDTAVYYCAVEAGSDWPYRYWGHGTQVTVSS
polyreactivity (PSR sort gate): low polyreactivity

QVQLVESGGRLVQAGGSLRLSCAASGRIFRYNAMGWYRQAPGKEREFVARISVITGRTYYADSVKGRFTISRDIAKNTVYLQMNSLKPEDTAVYYCAADAGYNYRYLLRGDYWGQGTQVTVSS
polyreactivity (PSR sort gate): high polyreactivity

QVQLVESGGGLVQAGGSLRLSCAASGITFYPYAMGWYRQAPGKERELVAAISWRSGSTNYADSVKGRFTISRDNAKNTVYLQMNSLKPEDTAVYYCNFDKVTSWYYYGYWGQGTQVTVSS
polyreactivity (PSR sort gate): low polyreactivity

QVQLVESGGGIVQAGGSLRLSCAASGSIFTVNALGWYRQAPGKERELVAAITFGGGRTYYADSVKGRFTISRDNAKNTVYLQMNSLKPEDTAVYYCAVSRKGLGSVEYWGQGTQVTVSS
polyreactivity (PSR sort gate): low polyreactivity

QVQLVESGGGLVQAGGSLRLSCAASGRIFWGYTMGWYRQAPGKERELVAAITFRGATTYYADSVKGRFTISRDNAKNTVYLQLNSLKPEDTAVYYCAKRGYASGSKWDYGYWGQGTQVTVSS
polyreactivity (PSR sort gate): high polyreactivity

QVQLVESGGGLVQAGGSLRLSCAASGSILRYYAMGWYRQAPGKEREFVAAISWSGTSTYYADSVKGRFTISRDNAKNTVYLQMNSLKPEDTAVYYCAARTYYVPYYYWGQGTQVTVSS
polyreactivity (PSR sort gate): high polyreactivity

QVQLVESGGGLVQAGGSLRLSCAASGSTFYSNAMGWYRQAPGKERELVAAINRGSSTYYADSVKGRFTISRDNAKNTVYLQMNSLKPDDTAVYYCAVDYFWYEMDYWGQGTQVTVSS
polyreactivity (PSR sort gate): low polyreactivity

QVQLVESGGGLVQAGGSLRLSCSASGFTFYRYAMGWYRQAPGKERELVAAITSGGSTYYADSVKGRFTISRDNAKNTVYLQMNSLKPEDTAVYYCAAQKARVFRGAWTRYEYWGQGTQVTVSS
polyreactivity (PSR sort gate): high polyreactivity

QVQLVESGGGLVQAGRSLRLSCAASGSTFVHNAMGWYRQAPGKERELVAAISRSGGRTYYADSVKGRFTISRDNAKNTVYLQMNSLKPEDTAVYDCAAGLHWTRYPSAHYLFEYWGQGTQVTVSS
polyreactivity (PSR sort gate): high polyreactivity

QVQLVESGGGLVQAGGSLRLSCAASGSIFPANVMGWYRQAPGKERELVAVISSSGGRTFYADSVKGRFTISRDNAKNTVYLQMNSLKPEDTAVYYCAATIYDYNRGRKYYYWGQGNQVTVSS
polyreactivity (PSR sort gate): high polyreactivity

QVQLVESGGGLVQAGGSLRLSCAASGSTFRYNPMGWYRQAPGNERELVAAISSGGYTNYADSVKGRFTISRDNAKNTVYLQMNSLKPEDTAVYYCAARYYPWKVNRFSYWYDYWGQGTLVTVSS
polyreactivity (PSR sort gate): high polyreactivity

QVQLVESGGGLVQAGGSLRLRCAASGRIFDYYAMGWYRPAPGNERELVAALSSSVGNTYYADSVKGRFTISRDNAKNTVYLQMNSLKPEDTAVYYCADNYYVRSSYEVEYDYWGQGTQVTVSS
polyreactivity (PSR sort gate): low polyreactivity

QVQLVESGGGLVQAGGSLRLSCAASGFTFSTNAMGWYRQAPGKERELVAAISCTGGSTYYADSVKGRFTISRDNAKNTVYLQMNSLKPEDTAVYYCATKFFNPGMYFWGQGTQVTVSS
polyreactivity (PSR sort gate): high polyreactivity

QVQLVESGGGLVQAGGSLRLSCAASGRIFVGYVMGWYRQAPGKERELVAAISSGGRTYYADSVKGRFTISRDNAKNTVYLQMNSLKPEDTAVYYCAAKRGGYNKEYDYWGQGTQVTVSS
polyreactivity (PSR sort gate): high polyreactivity

QVQLVESGGGLVQAGGSLRLSCAASGIIIQYYAMGWYRQAPGKERELVATITLRGGITYYADSVKGRFTISRDNAKNTVYLQMNCLKPEDTAVYYCNTDQGTTSDYGYWGQGTQVTVSS
polyreactivity (PSR sort gate): low polyreactivity

KGQLVESGGGLVQAGGSLRLTCAASGSNFRFYAMGWYRQAPGKERELVAAITYRSGITYADSVKGRFTISRDNAKNTVYVQMNSLKPEDTAVYYCAARARRYTDEYDYWGQGSQVTVSS
polyreactivity (PSR sort gate): low polyreactivity

QVQLVESGGGLVQAGGSLRLSCAASGFIFIANAMGWYRQAPGKERELVAAISDGGSTYYADSVKGRFTISRDNAKNTVYLQMNSLKPEDTGVYYCAKDVTWAGHYDYWGQGTQVTVSS
polyreactivity (PSR sort gate): low polyreactivity
